{"source": "paper PMC8287954", "key": {"[1]": {"target": "Ce^2–184-Sp^140–152 chimera•Gemin2 (Caenorhabditis elegans | Schizosaccharomyces pombe | not stated) (UniProt Q09808)", "assay": "SEC-MALS; Superdex 200 10/300 GL, 0.5 ml/min, room temperature (20°C), 50 mM HEPES-NaOH pH 7.5, 250 mM NaCl, 5 mM DTT; self-association of the SMN•G2 unit, (SMN•G2)n"}, "[2]": {"target": "SMN (SMN•Gemin2 dimer) (Schizosaccharomyces pombe) (UniProt Q09808)", "conditions": "cited from earlier work"}, "[3]": {"target": "Sp^1–117-Hs^253–294 chimera•Gemin2 (Schizosaccharomyces pombe | human | not stated) (UniProt Q09808)", "assay": "SEC-MALS; Superdex 200 10/300 GL, 0.5 ml/min, room temperature (20°C), 50 mM HEPES-NaOH pH 7.5, 250 mM NaCl, 5 mM DTT; self-association of the SMN•G2 unit, (SMN•G2)n"}, "hsSMNΔ5(G275S)•Gemin2": {"target": "hsSMNΔ5(G275S)•Gemin2 (UniProt O14893)", "sequence (O14893 whole entry, looked up, stated change not applied)": "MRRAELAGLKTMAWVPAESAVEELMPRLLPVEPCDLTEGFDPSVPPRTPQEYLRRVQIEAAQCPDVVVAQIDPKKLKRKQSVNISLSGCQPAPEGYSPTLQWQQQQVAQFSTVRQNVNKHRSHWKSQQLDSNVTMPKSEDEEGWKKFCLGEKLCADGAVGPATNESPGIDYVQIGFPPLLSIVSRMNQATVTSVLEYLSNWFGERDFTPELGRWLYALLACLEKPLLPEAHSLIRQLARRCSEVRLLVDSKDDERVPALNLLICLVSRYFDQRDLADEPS", "assay": "SEC-MALS", "conditions": "20°C; peak concentration 0.5 µM; parent: 231 (188-454)"}, "hsSMNΔ5(G279C)•Gemin2": {"target": "hsSMNΔ5(G279C)•Gemin2", "assay": "SEC-MALS", "conditions": "20°C; peak concentration 0.5 µM; parent: 231 (188-454)"}, "[4]": {"target": "hsSMNΔ5(L260S)•Gemin2, Q16637;O14893", "assay": "SEC-MALS", "conditions": "20°C; peak concentration 0.3 µM; parent: 231 (188-454)"}, "[5]": {"target": "hsSMNΔ5(M263R)•Gemin2, Q16637;O14893", "assay": "SEC-MALS", "conditions": "20°C; peak concentration 0.8 µM; parent: 231 (188-454)"}, "[6]": {"target": "hsSMNΔ5(M263T)•Gemin2, Q16637;O14893", "assay": "SEC-MALS", "conditions": "20°C; peak concentration 0.5 µM; parent: 231 (188-454)"}, "hsSMNΔ5(S262G)•Gemin2": {"target": "hsSMNΔ5(S262G)•Gemin2", "assay": "SEC-MALS", "conditions": "20°C; peak concentration 0.3 µM; parent: 231 (188-454)"}, "hsSMNΔ5(S262I)•Gemin2": {"target": "hsSMNΔ5(S262I)•Gemin2", "assay": "SEC-MALS", "conditions": "20°C; peak concentration 0.5 µM; parent: 231 (188-454)"}, "hsSMNΔ5(S266P)•Gemin2": {"target": "hsSMNΔ5(S266P)•Gemin2", "assay": "SEC-MALS", "conditions": "20°C; peak concentration 0.2 µM; parent: 231 (188-454)"}, "[7]": {"target": "hsSMNΔ5(Y272C)•Gemin2, Q16637;O14893", "assay": "SEC-MALS", "conditions": "20°C; peak concentration 0.8 µM; parent: 231 (188-454)"}, "[8]": {"target": "spSMN-GCN4(IL) chimera•Gemin2 (Schizosaccharomyces pombe | S. cerevisiae) (UniProt P0CU08)", "assay": "SEC-MALS + AUC + other: SAXS; spSMN-GCN4 fusions in complex with Gemin2; SEC-MALS, SV-AUC and SAXS named together"}}, "note": "“And” between values parts separate entries of the source, which are not always exact repeats. Equal values may be shown once.", "data": [{"substance": "Ce^2–184-Sp^140–152 chimera•Gemin2 (from UniProt Q09808 140-152) (complex)", "values": [{"measurement": "stoichiometry N", "setting": "[1]", "value": 2}]}, {"substance": "SMN (SMN•Gemin2 dimer) (from UniProt Q09808)", "values": [{"measurement": "Kd", "setting": "[2]", "value": 1000, "unit": "nM"}]}, {"substance": "Sp^1–117-Hs^253–294 chimera•Gemin2 (from UniProt Q09808 1-117; Q16637 253-294) (complex)", "values": [{"measurement": "stoichiometry N", "setting": "[3]", "value": "4 and 8"}]}, {"substance": "hsSMNΔ5•Gemin2 complex (from UniProt O14893) G275S", "values": [{"measurement": "other: SEC-MALS Mw", "setting": "hsSMNΔ5(G275S)•Gemin2", "value": 58}]}, {"substance": "hsSMNΔ5•Gemin2 complex (from UniProt O14893) G279C", "values": [{"measurement": "other: SEC-MALS Mw", "setting": "hsSMNΔ5(G279C)•Gemin2", "value": 586}]}, {"substance": "hsSMNΔ5•Gemin2 complex (from UniProt O14893) L260S", "values": [{"measurement": "other: SEC-MALS Mw", "setting": "[4]", "value": 124}]}, {"substance": "hsSMNΔ5•Gemin2 complex (from UniProt O14893) M263R", "values": [{"measurement": "other: SEC-MALS Mw", "setting": "[5]", "value": 113}]}, {"substance": "hsSMNΔ5•Gemin2 complex (from UniProt O14893) M263T", "values": [{"measurement": "other: SEC-MALS Mw", "setting": "[6]", "value": 115}]}, {"substance": "hsSMNΔ5•Gemin2 complex (from UniProt O14893) S262G", "values": [{"measurement": "other: SEC-MALS Mw", "setting": "hsSMNΔ5(S262G)•Gemin2", "value": 275}]}, {"substance": "hsSMNΔ5•Gemin2 complex (from UniProt O14893) S262I", "values": [{"measurement": "other: SEC-MALS Mw", "setting": "hsSMNΔ5(S262I)•Gemin2", "value": 306}]}, {"substance": "hsSMNΔ5•Gemin2 complex (from UniProt O14893) S266P", "values": [{"measurement": "other: SEC-MALS Mw", "setting": "hsSMNΔ5(S266P)•Gemin2", "value": 99}]}, {"substance": "hsSMNΔ5•Gemin2 complex (from UniProt O14893) Y272C", "values": [{"measurement": "other: SEC-MALS Mw", "setting": "[7]", "value": 78}]}, {"substance": "spSMN-GCN4(IL) chimera•Gemin2 (from UniProt P0CU08 1-235) (complex)", "values": [{"measurement": "stoichiometry N", "setting": "[8]", "value": 2}]}]}
